The text below walks through data of paper PMC9166750 (Scientific Reports, 2022).

In test [1] the target is syntaxin-3b (residues 1–264)-Avi, T14E, double-cysteine construct labelled with FRET dyes (mouse) (UniProt Q64704). Put plainly: FRET or BRET; single-molecule FRET within syntaxin-3b (donor and acceptor on two cysteines), tethered by C-terminal biotin to streptavidin on a PEG surface; 10 μM SNAP-25 and synaptobrevin-2 (1-96) in solution; low FRET (open) read as SNARE complex. A general note: BRET reads energy transfer from a luciferase to a nearby fluorophore.

For test [2], the target named is syntaxin-3b (residues 1–264)-Avi, wild type, double-cysteine construct labelled with FRET dyes (mouse) (UniProt Q64704). Described as above.
Test [3] concerns the target syntaxin-1a cytoplasmic domain (residues 1–265) with C-terminal Avi-tag (UniProt P32851). Put plainly: fluorescence polarisation; bulk fluorescence anisotropy; Alexa 488-labelled syntaxin about 0.5 μM in TBS (20 mM Tris pH 7.5, 150 mM NaCl, 0.5 mM TCEP), unlabelled SNAP-25A 0-0.900 μM, about 15 min at room temperature, 96 well plate; curves fit with Hill equations to estimate Kd.

For test [4] the target is unchanged. In words: pull-down; syntaxins biotinylated at the N-terminal amino group on neutravidin agarose beads; about 300 μg Munc18-1 incubated 1 h, washed, then 500 μg SNAP-25A 1 h at room temperature, washed with TBS; SDS-PAGE, Coomassie, Munc18-1 and SNAP-25 bands normalised to the syntaxin bands (ImageJ).
The target is the same in test [5]. In words: fluorescence polarisation; ensemble fluorescence anisotropy of syntaxins with Munc18 (Supplemental Fig. 3); estimated Kd; conditions of this titration not told.
Test [6] concerns the target T1, Munc18-1 (UniProt P61765 1-594).
T1 construct: The methods describe no plasmid for Munc18-1; only its tag cleavage and gel filtration are told; source: E. coli BL21 (DE3*), purified (Ni-NTA, TEV cleavage, Superdex 200 gel filtration)
The description is as above. To be noted: both partners purified.

The Kd is the equilibrium constant for the complex coming apart. “SNAP-25, full length (from UniProt P60881-2 1-206) (natural protein)”: the fold increase of SNARE complex formation against WT syntaxin-3b in test [1] was 2 fold. For the same molecule, the percent of molecules that formed ternary SNARE complex in test [2] turned out to be 50%. Also, the equilibrium dissociation constant (Kd) in test [3] is 161 nM.

Molecule “synaptobrevin-2 cytoplasmic domain (residues 1–96) (from UniProt P63045 1-96) (domain or fragment)” had a fold increase of SNARE complex formation against WT syntaxin-3b in test [1] of 2 fold. In test [2], this molecule gave a percent of molecules that formed ternary SNARE complex of 50%.

For the molecule “Munc18-1 (from UniProt P61765 1-594) (natural protein)”, the percent decrease of binary t-SNARE complex formation with SNAP-25 in the presence of Munc18-1 in test [4] came to 70%. The Kd in test [5] was 6.6 nM.

B1: syntaxin-3b cytoplasmic domain (residues 1–264) with C-terminal Avi-tag, wild type (domain or fragment, mouse, UniProt Q64704-2 1-264, looked up)
chain: MKDRLEQLKAKQLTQDDDTDEVEIAIDNTAFMDEFFSEIEETRLNIDKISEHVEEAKKLYSIILSAPIPEPKTKDDLEQLTTEIKKRANNVRNKLKSMEKHIEEDEVRSSADLRIRKSQHSVLSRKFVEVMTKYNEAQVDFRERSKGRIQRQLEITGKKTTDEELEEMLESGNPAIFTSGIIDSQISKQALSEIEGRHKDIVRLESSIKELHDMFMDIAMLVENQGAMIDRIENNMDQSVGFVERAVADTKKAVKYQSEARRKK
modifications: Alexa 488 (NHS ester) at the N-terminal primary amino group in the anisotropy assays; biotin (NHS-biotin) at the N-terminal primary amino group in the pull-downs
notes: syntaxin-3b (splice isoform 3b of syntaxin-3), cytoplasmic domain, residues 1-264; Gene synthesized and inserted into pJ414 (ATUM); The two native cysteines lie in the transmembrane region, which the Avi-tag replaces; also called SX-3b; WT syntaxin-3b; source: E. coli BL21 (DE3*), purified (Ni-NTA, TEV cleavage, HiTrap Q); not shown: His6, N-terminal, cleaved
Turning to B1, in test [6], the Kd was 9.6 nM.
